Assay results published in the nanobody polyreactivity screen of Harvey et al. (2022).

Test: yeast display, Sf9 membrane polyspecificity reagent, FACS + sequencing; frameworks hold sequencing errors
Outline: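 Nanobodies came from a synthetic yeast display library in Saccharomyces cerevisiae BJ5465, induced with galactose for 36–48 hours and stained for 1 hour at 4 °C with 10% biotinylated, detergent-solubilized Sf9 membrane reagent. Cells were enriched on streptavidin microbeads and then FACS-sorted, with low and high (top ~1%) gates set on anti-HA fluorescence for expression and streptavidin fluorescence for reagent binding. Each polyreactivity label reflects the gate a clone came from. Genes were amplified by colony PCR, sequenced by MiSeq 2 × 250 and filtered by CDR length.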

| Sequence | polyreactivity (PSR sort gate) |
| --- | --- |
| QVQLVESGGGLVQAGGSLRLSCAASGNIFVRYVMGWYRQAPGKERELVAAITTSGGSTRYADSVKGRFTISRDNAKNTVYLQMNSLKPEDTAVYYCAARFRYRHLTYGYWGQGTQVTVSS | high polyreactivity |
| QVQLVESGGGLVQAGGSLRLSCAASGITFALNAMGWYRQAPGKERELVAAIRWGGDSTYYADSVKGRFTISRDNAKNTVYLQMNSLKPEDTAVYYCAAYGPRTLDYWGQGTQVTVSS | high polyreactivity |
| QVQLVESGGGLVQAGGSLRLSCAASGSIFDVYAMGWYRQAPGKERELVAAITFDGGSTYYADSVKGRFTISRDNAKNTVYLQMNSLKPEDTAVYDCNAEFYFLWDWQSFDYWGQGTQVTVSS | high polyreactivity |
| QVQLVESGGGLVQAGGSLRLSCAASGRTFVFYGMGWYRQAPGKEREFVAAITRRGGSTYYADSVKGRFTISRDNAKNTVYLQMNSLKPEDTAVYYCAAGYSSRYRGGLDYWGQGTQVTVSS | high polyreactivity |
| QVQLVESGGGLVQAGGSLRLSCAASGSIFVHYAMGWYRQAPGKERELVARISWRGNTYYADSVKGRFTISRDNAKNTVYLQMNSLKPEDTAVYYCAKDVRRSLVIWDVVYPHGYWGQGTQVTVSS | low polyreactivity |
| QGQLVESGGGLVQAGGSLRLSCAASGITFPGYAMGWSRQAPGKERELVAVIRKSGTSTYYADSVKGRFTISRDNEKNTVYLQMNSLKPEDTAVYYCADGGPSTVDVYWGQGTQVTVSS | low polyreactivity |
| QVQIVESGGGLVQAGGSLRLSCAASGRTFTAYAMGWYRQAPGKERELVAAITTSGGTTYYADSVKGRFTISRDNAKNTVYLQMKSLKPEDTAVYYCAADVVVSWWLIYDYWGQGTQVTVSS | low polyreactivity |
| QLQLVESGGGLVQAGGSLRLSCAPSGRILWVNAMGWYRQAPGKERELVAAISLSGGRTYYADSVKGRFTISRDNAKNTVYLQMNSLKPEDTAVYYCAARTVNYYYTTGDYWGQGTQVTVSS | low polyreactivity |
| QVQLVESRGGLVQAGGSLRLTCAAYGRIFLVYDMGWYRHAPGKERELVAAISWSTGSTYYADSVKGRFTISRDNAKNTFYFQINSLITEDTAVYYCAAEPELDDYEHDYWGQGTQLTVSS | low polyreactivity |
| QVQLVESGGGLVQAGGSLRLSCAASGITFGRNTKGWYRQAPGKERELVAAIDSGGNTYADSVKGRFTISRDNAKNTVYLQMNSLKPEDTAVYYCNAGYVHSFDYWGQGTQVTVSS | low polyreactivity |
| QVQLVESGGGLVQAGGSLRLSCAASGIIFAWYVKGWYRQAPGKERELVAAITQSGGSTFYADSVKWRFTISRDNAKNTVYLQMNSLKPEDTAVYYCNREYWGRGYYRVRGEYDYWGQGTQVTVSS | low polyreactivity |
| QVQLVESGGGLVQAGGSLRLSCAASGIIFGDNAMGWYRQAPGKERELVAAISSGGITYYADSVKGRFTISRDNAKNTVYLQMNSLKPEDTAVYYCAAGYYDFWYDYWGQGTQVTVSS | low polyreactivity |
| QVQLVESGGGLVQAGGSLRLSCAASGFTFRYYAMGWYRQAPGKERELVAAISSGGSTYYADSVKGRFTISRDNAKNTVYLQMNSLKPEDTAVYYCATYLAEYGYWGQGTQVTVSS | high polyreactivity |
| QVQLVESGGGLVQAGGSLRLSCAASGSTLYVYTMGWYRQAPGKERELVATINTSGSRTYYADSLKGRFTISRDIAKNTVYLQMNSLKPEDTAVYYCNARSSRWFYGYNYWGQGTQVTVSS | high polyreactivity |
| QVQLVESGGGLVQAGGSLRLSCAASGFTFGYYAMGWYRQAPGKERELVAAITNSGGSTYYADSVKGRFTISRDNAKNTVYLQMNSLKPEDTAVYYCAAEISILPFVTPDTIYGYWGQGTQVTVSS | low polyreactivity |
| QVQHVESGRGLVPAGGSLRLSCAASGSTFNLNAMGWYRQAPGKERELVAAISWRGDSTSYADSVKGRFTISRDNAKNTVYLQMNSLKPEDTAVYFCATAHDSAFYRYWYVPSEYNYWGQGTQVTVSS | low polyreactivity |

| Sequence | polyreactivity (PSR sort gate) |
| --- | --- |
| QVQLVESGGGLVQAGGSLRLSCAASGIIFRFYAMGWYRQAPGKERELVARIRSRGGSTYYADSVKGRFTISRDNAKNTVYLQMNSLKPEDTAVYYCAAGAGYPYYWGQGTQVTVSS | high polyreactivity |
| QVQLVESGGGLVQAGGSLRLSCAASGSNFFVYAMGWYRQAPGKERELVASIRWRGSSTYYADSVKGRFTISRDNAKNPVYLQMNSLKPEDTAVYDCAATSYNGYGYWGQGTQVTVSS | high polyreactivity |
| QVHLVESGGRLVQAGGSLRLSCAASGRTVVDNAMGWYRQAPGKESQLVAAISSGGTTNFADSVKGRFTISRDIAKNTVYLQMNSLKPEDTAVFYCNTVATYLRSGYGNWGQGTQVTVSS | low polyreactivity |
| QVQLVESGGGLVQAGGSLRLSCAASGIIFIYNAMGWYRQAPGKERELVADIRRSGSTSYADSVKGRFTISRDNAKNTVYLQMNSLKPEDTAVYYCAADTSTWFGAYYLRDPYDYWGQGTQVTVSS | low polyreactivity |
| QVQLVESGGGLVQAGGSGRLSCAASGSILPSYAMGWYRQAPGKERELVAAISRRGGSTYYADSVKGRFSISRDNAKNTVYLQMNSLKPEDTAVYYCAAGSYSGYDYWGQGTQVTVSS | low polyreactivity |
| QDQLVESGGGLDQAGGSLRLSCAASGRIFDVYAMGWYRQAPGKERELVAAISWSGSSTYYADSVKGRFTISRDNAKNTVYLQMNSLKPEDTAVYSCATVLRVTRVDYWGQGTQVTVSS | high polyreactivity |
| QVQLVESGGGLVQAGGSLRLSGAASGFTFFINGMGWYRQAPGKVRELVAAIRSSGASTYYADSVKGRFTISRDNAKNTVYLQMNSLKPEDTAVYYCNARSRVGNSVADYDYCGQGTQVTVSS | low polyreactivity |
| QVQLVESGGGLVQAGGSLRLSCAASGSTFIYYAMGWYRQAPGKERELVAGISIRGGSTYADSVKGRFTISRDNAKNTVYLQMNSVKPEDTAVYYCNAYKRIKANGYAIRYYYWGQGTQVTVSS | high polyreactivity |
| QVQLVESGGGLVQAGGSLRLRCAASGSTFSSYAMGWYRQAPGKERELVAAISSRGGRTYYADSVKARFTISRDNAKNTVYLQMNRLIPEDTAVYYCAADWGVRDEYYYWGQGTQVSVSS | high polyreactivity |
| QVQLVESRGGLVQAGGSLRLSCAASGFTFERYTMGWYRQAPGKERELVAGINYSGGSTYYADSVKGRFTISRDNAKNTVYLQMNSLKPEDTAVYYCAKDFPYSRYRRRYYYWGQGTQVTVSS | high polyreactivity |
| QVQLHESGGGLVQAGGSLRLRCAASGTISYAGPMGWYRQAPGKEREFGAGIGVGSNTNYADSVKGRYTIIRDNAKNTVFLQMNSLKPEDTAVYYCAVGGYAPLGRPYWGQGTQVTVSS | low polyreactivity |
| QVQLVESGGGLVQAGGSLRLSCAASGSIFSRYAMGWYRQAPGKERELVAAISRRGGTTYYADSVKGRFTISRDNAKNTVYLQMNSQKPVDTAVYYCAAVFVTQSFIYDYYYWGQGTQVTVSS | high polyreactivity |
| QVQLVESGGGLVQAGGSLRLSCAPSGRTIYHYAMGWYRQAPGKERELVAAITWSGGSTYYADSVKGRVTISRDNAKKTVYLQMNSLKPEDTAVYYWARYPARYGGYYDYDYWGQGTQVTVSS | high polyreactivity |
| QVQLVESGGGLVQAGGSLRLSCAASGSIFISYAMGWYRQAPGKESELVDAINYSGGSTYYADSVKGRFTISRDNAKNTVYLQMNSLKPEDTAVYYCAKRSTYRYYGYKLRDYWGQGTQVTVSS | low polyreactivity |
| QVQLVESGGGLVQAGGSLRLSCAASGSIIYLYAMGWYRQAPGKERELVAAITSIGGSTYADSVKGRFTISRDNAKNTVYLQMNSLKPEDTAVYYCNTDEYPLTVQVQYYYWGQGTQVTVSS | low polyreactivity |
| QVQLVESGGGLVQAGGSLRLSCAASGLNFVQYVMGWYRQATGKERELVAAITDDGNTYYADSVKGRFTISRDNAKNTVYLQMNSLKPEDTEVYYCNAVLRSYDFWPGYGYWGQGTQVTVSS | low polyreactivity |
